Experimental data taken from US20180292412A1 (JULIUS MAXIMILIANS UNIVERSIT T W RZBURG, published 2018).

Legend:
[1] = target: T1, recombinant mature human GDF-15 protein (as expressed in Baculovirus-transfected HighFive insect cells) (human, UniProt Q99988 197-308); experiment: SPR (Biorad ProteOn XPR36), calculated as koff/kon
T1 construct: Immobilised by amine coupling on the SPR chip; also called recombinant human GDF-15; GDF-15 derived from insect cell expression
T1 sequence: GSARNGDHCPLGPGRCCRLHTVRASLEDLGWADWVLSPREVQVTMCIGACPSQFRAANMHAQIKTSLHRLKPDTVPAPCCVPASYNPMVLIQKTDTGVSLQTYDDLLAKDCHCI
Text: (§1) For preparing the biosensors recombinant mature human GDF-15 protein was immobilized on flow cells 1 and 2. On one flow cell recombinant GDF-15 derived from Baculvirus-transfected insect cells (HighFive insect cells) and on the other recombinant protein derived from expression in E. coli was used. The GLC sensor chip was activated using Sulfo-NHS (N-Hydroxysulfosuccinimide) and EDC (1-Ethyl-3-[3-dimethylaminopropyl]carbodiimide hydrochloride) (Biorad ProteOn Amine Coupling Kit) according to the manufacturer's recommendation, the sensor surface was subsequently loaded with the proteins up to a density of about 600 RU (1 Ru=1 pg mm⁻²). The non-reacted coupling groups were then quenched by perfusion with 1M ethanolamine pH 8.5 and the biosensor was equilibrated by perfusing the chip with running buffer ([…], 150 mM NaCl, 3.4 mM EDTA, 0.005% Tween-20, pH 7.4, referred to as HBS150). […] The resulting sensogram was analyzed using the software ProteOn Manager version 3.0. […] For the association rate constant a value of 5.4±0.06×10⁵ M⁻¹s⁻¹ (kₒₙ) and for the dissociation rate constant a value of 4.3±0.03×10⁻⁴ s⁻¹ (koff) could be determined (values are for the interaction of anti-human GDF-15 mAb-B1-23 with GDF-15 derived from insect cell expression).

[2] = target: T2, recombinant mature human GDF-15 protein derived from expression in E. coli (human, UniProt Q99988 195-308); experiment: SPR (Biorad ProteOn XPR36), GDF-15 from E. coli immobilised, antibody as analyte
T2 construct: mature; also called GDF-15 derived from E. coli expression
T2 sequence (looked up): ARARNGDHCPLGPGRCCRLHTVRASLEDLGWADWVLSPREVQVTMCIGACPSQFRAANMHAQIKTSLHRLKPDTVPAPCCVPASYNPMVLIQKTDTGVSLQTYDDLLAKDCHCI
Text: as §1, with “The” for “For preparing the biosensors recombinant mature human GDF-15 protein was immobilized on flow cells 1 and 2. On one flow cell recombinant GDF-15 derived from Baculvirus-transfected insect cells (HighFive insect cells) and on the other recombinant protein derived from expression in E. coli was used. The”, “HBS150). As controls two flow cells were used, one empty with no protein coupled and one coupled with an non-physiological protein partner (human Interleukin-5), which was immobilized using the same coupling chemistry and the same coupling density. For interaction measurements anti-human GDF-15 mAb-B1-23 was dissolved in HBS150 and used in six different concentrations as analyte (concentration: 0.4, 0.8, 3, 12, 49 und 98 nM).” for “HBS150).”

[3] = target: T1, recombinant mature human GDF-15 protein …; experiment: SPR (Biorad ProteOn XPR36, GLC chip), GDF-15 from insect cells immobilised, antibody as analyte, 25° C., 1:1 Langmuir model
Text: as §1

Kd [1]: ~0.79 nM
fold difference of affinity against GDF-15 derived from insect cells [2]: < 2 fold
koff [3]: 0.00043 s⁻¹
kon [3]: 540000 M⁻¹ s⁻¹
B1: monoclonal anti-human GDF-15 mAb-B1-23 (antibody, IgG2a, V domains shown, not shown: a dimerising Fc or GST)
VH: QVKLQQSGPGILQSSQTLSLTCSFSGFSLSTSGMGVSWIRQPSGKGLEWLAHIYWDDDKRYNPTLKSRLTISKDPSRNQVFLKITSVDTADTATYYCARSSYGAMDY
VL: DIVLTQSPKFMSTSVGDRVSVTCKASQNVGTNVAWFLQKPGQSPKALIYSASYRYSGVPDRFTGSGSGTDFTLTISNVQSEDLAEYFCQQYNNFPYT
notes: Mouse hybridoma antibody (DSM ACC3142), IgG2a, kappa chain; FR4 and the constant regions are missing; also called antibody B1-23; monoclonal mouse antibody GDF-15
